Legend:
[1] = target: T1, CD27 expressed on the cell surface (HT1080_CD27 cells) (human, UniProt P26842 20-260); experiment: cell-based or functional assay
T1 sequence (looked up): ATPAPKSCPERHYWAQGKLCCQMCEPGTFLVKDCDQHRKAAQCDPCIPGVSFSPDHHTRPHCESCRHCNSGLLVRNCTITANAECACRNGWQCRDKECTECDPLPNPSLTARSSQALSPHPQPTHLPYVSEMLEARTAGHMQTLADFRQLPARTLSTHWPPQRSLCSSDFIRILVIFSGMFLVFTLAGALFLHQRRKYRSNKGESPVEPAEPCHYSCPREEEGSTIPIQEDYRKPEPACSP

[2] = target: T2, CD27 protein (His-tagged, Sino Biological Inc. 10039-H08B1) (human, UniProt P26842 20-192); experiment: ELISA on coated His-tagged CD27
T2 construct: bought; coated onto ELISA plates; also called human CD27; recombinant protein; not shown: His tag
T2 sequence (looked up): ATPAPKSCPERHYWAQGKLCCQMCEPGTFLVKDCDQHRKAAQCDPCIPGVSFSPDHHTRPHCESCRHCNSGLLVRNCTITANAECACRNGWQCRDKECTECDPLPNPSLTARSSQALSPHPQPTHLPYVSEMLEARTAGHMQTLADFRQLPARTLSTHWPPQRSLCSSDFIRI

[3] = target: T1, CD27 expressed on the cell surface …; experiment: cellular binding assay, HT1080_CD27 cells
Also: test concentration or dose not given here.

| Binder | IL-8, cross-linked by F(ab')2 fragment [abs. corr.] [1] [abs. corr.] | IL-8 [abs. corr.] [1] [abs. corr.] | ELISA [abs. corr.] [2] [abs. corr.] | Cellular binding assay [RFU] [3] [RFU] |
| --- | --- | --- | --- | --- |
| P018.S.09.A.D04 (antibody, V domains shown, V regions on human Ig constant parts; also called AB27_151) VH: QSVEESGGRLVTPGTPLTLTCTVSGFSLSSNAISWVRQAPGKGLEWIAIITHSDNTFYASWAKGRFTISKASTTVDLKVTSPTTEDTATYFCARDGYVSSSGTYMGGYFDLWGQGTLVTVSS VL: DPVLTQTPSPVSAAVGGTVTINCQASQIIYNDKNLAWYQQKPGQPPKLLIYYASTLASGVSSRFKGSASGTQFTFTISGVQSDDAATYYCQGEFSCSSADCIAFGGGTEVVVK | 1.66 | 0.688 | 3.35 | 376 |
| P018.S.07.A.H06 (antibody, V domains shown, V regions on human Ig constant parts; also called AB27_134) VH: QSLEESGGDLVQPGASLTLTCKASGIDLSSYWMCWVRQTPGKGLEWIGCIATYSSVTYYANWAKGRFTISKPSSTTVTLQMTSLTAADTATYFCARDPYSFNGSLFTLWGPGTLVTVSS VL: ALVMTQTASPVSAAVGGTVTIDCQASQNIGTYLAWYQQKPGQPPKLLIYTASSLASGVPSRFKGSGSGTQFTLTISDLESDDAATYYCAGYKNYNNDDNGFGGGTEVVVK | 1.23 | 0.422 | 3.35 | 327 |
| P018.S.07.A.D03 (antibody, V domains shown, V regions on human Ig constant parts; also called AB27_122) VH: QEQLKESGGGLVTPGGTLTLTCTVSGFSLSGHDMGWVRQAPGKGLEWIGIIGSNSKTYYTNWAKGRFTISKTSTTVGLRITSPTTEDTATYFCTVVGPGVGGFYFDLWGQGTLVTVSS VL: DVVMTQTPASVSDPVGGTVTIRCQASQSIGSDLAWYQQKPGQPPKLLIYAASTLASGVPSRFSGSGSGTEYTLTISDLESADAATYYCQCTYVGSTYLGAFGGGTEVVVK | 1.68 | 0.569 | 3.34 | 409 |
| P018.S.07.A.D04 (antibody, V domains shown, V regions on human Ig constant parts; also called AB27_123) VH: QSLEESGGRLVTPGGSLTLTCTVSGIDLSSYAMGWVRQAPGKGLEWIGIISSSGSTYYASWANGRFTISKTSTTVDLKVTSPTTEDTATYFCARDGDSGRGYYFHFWGQGTLVTVSS VL: AFELTQTPASVSAAVGGTVTIKCQASEDIYSLLAWYQQKPGQPPKLLIYDASDLASGVPSRFSGSGSGTEYTLTISDLESADAAIYYCQQGYTTVTIVDNVFGGGTEVVVK | 1.81 | 0.449 | 3.33 | 393 |
| P018.S.08.A.E02 (antibody, V domains shown, V regions on human Ig constant parts; also called AB27_139) VH: QSLEESGGRLVTPGGSLTLTCTVSGIDLSSYDMNWVRQAPGEGLEWIGAISTGGDTHYTNWAKGRFTISKTSTTVDLKMTSLTAADTATYFCARGYYTLALWGQGTLVTVSS VL: DPVLTQTPASVEAAVGGTVTIKCQASQSINSWLSWYQQKPGQPPKRLIYDTSTLESGVPSRFSGGESGTEFTLTISDLESDDAATYYCQSYYYITSSYAITFGGGTEVVVK | 1.55 | 0.315 | 3.33 | 387 |
| P018.S.04.A.D05 (antibody, V domains shown, V regions on human Ig constant parts; also called AB27_73) VH: QSLEESGGRLVTPGTPLTLTCTASGIDLSRHAINWVRQAPGKGLEYIGTIYASGSTFYASGAKGRFTISKTSTTVDLGITSLTTEDTATYFCARGITIEWFDLWGQGTLVTVSS VL: AAVLTQTPSSVSAAVGGTVTINCQSSPSVYSNYLSWFQQKPGQPPKLLIYGAATLASGVPSRFRGSGSGTEFTLTITDVQSDDAATYYCLGGYSDTADTIFGGGTEVVVK | 1.08 | 0.241 | 3.33 | 292 |
| P018.S.09.A.H03 (antibody, V domains shown, V regions on human Ig constant parts; also called AB27_160) VH: QSLEESGGRLVTPDESLTLTCTVSGFSLSSNAMIWVRQAPGKGLEWIGIIDTGGSAYYASWAKGRFTISKTSTTVDLKITSPTTEDTATYFCARDRYTDSSGYNLWGQGTLVTVSS VL: DIVMTQTPASVEAAVGGTVTIKCQASQSIGASLAWYKQKPGQPPKLLIYSASWLASGVPSRFKGSGSGTEFTLTISDLASADAATYYCQSYYYRSSSGYGYAFGGGTEVVVK | 2.13 | 0.578 | 3.54 | 268 |
| P018.S.07.A.G02 (antibody, V domains shown, V regions on human Ig constant parts; also called AB27_129) VH: QSVEESGGRLVTPGTPLTLTCTVSGFSLSSYDMSWVRQAPGKGLEWIGWITTDGGTDYASWAKGRFTVSKASTTVDLKITSPTTEDTATYFCARGYASFNLWGQGTLVTVSS VL: AQVLTQTPSSVSAAVGGTVTINCQSSQSVLSNSYLAWYQQKPGQPPKLLIYAASSLASGVPSRFKGSGSGTQFTLTISDLESDDAATYYCQGTDYSGGWYVAFGGGTEVVVK | 2.41 | 0.725 | 3.33 | 453 |
